# According to paper doi:10.1101/2024.03.26.586731:
# Assays:
# Assay in all cases: high-speed atomic force microscopy
# IgG4-DNP-E430G (human) = target: IgG4-DNP-E430G (human)
# IgG3-DNP-E430G (human) = target: IgG3-DNP-E430G (human)
# IgG1-DNP-E430G (human) = target: IgG1-DNP-E430G (human)
# IgG2-DNP-E430G (human) = target: IgG2-DNP-E430G (human)
substance,measurement,setting,value
IgG4-DNP-E430G (antibody),stoichiometry N,IgG4-DNP-E430G (human),< 6
IgG3-DNP-E430G (antibody),stoichiometry N,IgG3-DNP-E430G (human),< 6
IgG1-DNP-E430G (antibody),stoichiometry N,IgG1-DNP-E430G (human),< 6
IgG2-DNP-E430G (antibody),stoichiometry N,IgG2-DNP-E430G (human),< 6
